For two molecules, Kd results are on record in article PMC9303311.

The term Kd denotes the constant that tells how readily two partners part at equilibrium.

The target of one data set is SAMHD1 T592E (Homo sapiens, UniProt Q9Y3Z3 1-626, T592E). The experiment in a line: fluorescence anisotropy. A general note: Fluorescence polarisation rises when a labelled molecule tumbles more slowly, as on binding a larger partner.
Another data set has as its target SAMHD1 wild-type (Homo sapiens, UniProt Q9Y3Z3 1-626). The experiment in a line: fluorescence anisotropy.

Chain of SAMHD1 T592E (Q9Y3Z3 whole entry T592E): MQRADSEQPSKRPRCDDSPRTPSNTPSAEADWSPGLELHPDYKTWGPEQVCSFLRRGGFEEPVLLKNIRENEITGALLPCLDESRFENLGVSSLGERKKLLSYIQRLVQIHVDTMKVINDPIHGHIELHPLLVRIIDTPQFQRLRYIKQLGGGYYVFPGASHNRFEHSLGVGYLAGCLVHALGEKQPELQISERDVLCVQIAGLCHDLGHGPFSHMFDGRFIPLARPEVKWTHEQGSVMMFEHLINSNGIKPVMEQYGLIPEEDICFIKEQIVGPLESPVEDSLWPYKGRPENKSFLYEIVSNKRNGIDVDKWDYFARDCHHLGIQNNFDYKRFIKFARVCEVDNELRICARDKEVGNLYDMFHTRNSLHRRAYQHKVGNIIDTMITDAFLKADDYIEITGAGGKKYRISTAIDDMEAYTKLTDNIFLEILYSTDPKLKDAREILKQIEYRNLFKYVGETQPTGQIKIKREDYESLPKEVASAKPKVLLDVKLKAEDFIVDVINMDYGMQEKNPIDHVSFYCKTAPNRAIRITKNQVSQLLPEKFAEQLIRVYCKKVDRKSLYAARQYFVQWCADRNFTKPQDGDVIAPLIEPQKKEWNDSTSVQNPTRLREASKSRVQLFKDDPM
Chain of SAMHD1 wild-type (Q9Y3Z3 whole entry): as the sequence (Q9Y3Z3 whole entry T592E) above, with E592T counted along it

For CGCCT (XNA, phosphorothioate at every internucleotide linkage, mixed Rp/Sp) [5'FAM-PsDNA5], the Kd with SAMHD1 T592E is 0.283 ± 0.008 µM; with SAMHD1 wild-type, 0.119 ± 0.007 µM.

B1: 5'FAM-ssDNA57 (ssDNA)
DNA: TGGAGAATCCCGGTGCCGAGGCCGCTCAATTGGTCGTAGACAGCTCTAGCACCGCTT
In the data set with SAMHD1 T592E, B1 registered a Kd of 0.431 ± 0.025 µM.
